Results as given in US20200206304A1, “METHODS AND COMPOSITIONS FOR EFFICIENT DELIVERY THROUGH MULTIPLE BIO BARRIERS” (Cedars-Sinai Medical Center, priority 2017, published 2020).

Assays:
[1] = test system: blood-brain barrier (BBB); assay: BBB penetration: nanoconjugate fluorescence in brain parenchyma of healthy mice by optical imaging
Protocol: Healthy Mice: Eight to nine-week-old BALB/C and BLACK-6 mice were obtained from Charles River Laboratories (Wilmington, Mass., USA). […] Three to four mice of each sex were used for each experiment.
Nanoconjugates were dissolved freshly in PBS (pH 7.4) prior to each experiment and injected intravenously (i.v.) into the lateral tail vein. Mice were anesthetized with isoflurane beforehand, and their tails were briefly warmed to facilitate injections. […] The drug injection volume was kept constant at 150 μL. After each injection, mice were promptly returned to their cages. Eight to nine-week-old B116 mice were obtained from Charles River Laboratories (Wilmington, Mass., USA). […] Three to four mice of each sex were used for each experiment. Nanoconjugates were dissolved freshly in PBS (pH 7.4) prior to each experiment and injected intravenously (i.v.) into the lateral tail vein. […] All mice were euthanized 2 h post drug injection. Mice were anesthetized with isoflurane beforehand and their tails were briefly warmed to facilitate injections. All conjugates were administered as a single dose, as indicated for each experiment (4× or 8×). […]
In this analysis, 20×10 μm^2 or 10×10 μm^2 sized regions of interest (ROI) were randomly overlaid on images showing the vasculature, explicitly avoiding blood vessels. For FIG. 30A, the ROI was drawn around all Neun stained nucleuses detected. Intensity measurements and positions were then obtained for each ROI after it was separately overlaid on the image showing nanoconjugate fluorescence.
Fluorescence measurements were thus based on the anatomy of the cerebral vasculature rather than nanoconjugate labeling of whole sections or extracts of brain parenchyma and were therefore unbiased and intentionally avoiding the nanoconjugate load in the cerebral vasculature.
All nanoconjugate fluorescence measurements in brain parenchyma (e.g., FIGS. 14B-14C (1-3); 16B (1-3); 19B-19E; 20C-20D; and FIG. 22B) are presented as relative fluorescence intensities. […] Relative fluorescence measurements thus represent total fluorescence minus representative autofluorescence. […]

Aβ plaque = target: T1, Aβ plaque (Homo sapiens, UniProt P05067); assay: Percentage of total plaques labeled by mini nanodrugs in AD mice; format: in vivo,  (B6.Cg-Tg (APPswe/PS1ΔE9) 85Dbo/J hemizygous) mice; settings: injected dose 8X (0.55 μmol/Kg)
T1 construct: tissue Jackson Laboratories; host or cells: brain of 6-8 month old APPswe/PS1ΔE9 transgenic mice, plaques labelled in vivo after iv injection and counterstained on sections
Protocol: Slides were air dries and fixed using freshly diluted 2% PFA for 5 minutes. The PFA was washed 3 timed with PBS, and brains were covered with 70% EtOH for 5 minutes before washing with dH2O for 2 minutes. 1× Amylo-Glo (Biosenses, #TR-300-AG 100×, diluted with PBS) was then added for 10 minutes. The slides were then washed with PBS (5 minutes) and dH2O (15 seconds) and mounted (Fluoromount-G, No DAPI, Invitrogen), and stored at 4° C. prior to imaging.
Brains were collected and preserved in OTC for immunostaining.

[2] = sagittal sinus, 0.068 μmol/kg
neurons and astroglia = settings: mouse, in vivo
Protocol: Neuronal and glial counterstaining: In FIGS. 27A-27C, brain tissue from drug-injected mice was counterstained to determine if our nanoconjugates are taken up by neurons or glia. Cryosections ([…]) were air-dried for 10 min, fixed with 2% paraformaldehyde for 5 min, and then rinsed three times with PBS. […] The antibodies anti-Neun (Abcam, Cambridge, Mass., USA; AB104225) and anti-GFAP (Neuromics, Edina, Minn., USA; C1122102) were then diluted 1:500 in PBS-T and tissue sections incubated simultaneously with antibody solutions overnight at 4° C. in a humid chamber. Tissue sections were then washed five times with PBS-T and incubated in appropriate secondary antibody diluted 1:250 in PBS-T, for 2-4 h. After five washes in PBS at room temperature, sections were mounted between coverslips in Fluoromount-G with DAPI.
To this end, after systemic injection of our D-conjugates we counterstained brain tissue sections of hippocampus and cortex with anti-Neun to label neurons, and with anti-GFAP to label astroglia (FIGS. 27A-27C) and inspected the stained sections for red fluorescent particulates. […] Positive neurons and glia cells were counted after systemic injection of conjugates containing D1, D3, AC189 peptides, and of a control PBS (FIGS. 27A-27C).

[3] = 0.5, 1, 2 and 4 hours after injection
glioblastoma GL261 = settings: mouse, in vivo

T1 sequence (P05067 672-713 limits assumed): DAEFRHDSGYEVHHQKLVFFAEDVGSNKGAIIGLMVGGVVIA

## PMLA/LLL/AP2/rhodamine [P/LLL/AP2]
[1]; 0.068 μmol/kg i.v.
  time at which nanoconjugate fluorescence could not be distinguished from background of brain parenchyma: 240 min
  time of maximal conjugate fluorescence in cortex parenchyma: 30 min
[1]; dose 8×
  fluorescence intensity in normal brain: 30 units
Aβ plaque
  Percentage of total plaques labeled by the reagents: 1.23%
[2]
  optical half-life (optically measured serum clearance): 1.22 h
Neurons and astroglia
  cell association in GFAP and NEUN staining: no cell association
[3]
  Visibility of nanoconjugate around blood vessels in ex vivo brain slices: visible around blood vessels for two hours and almost disappeared at 4 hours
Glioblastoma GL261
  increase in tumor selectivity with the increase of the dose: 2.4 fold
